The results in this text go back to article PMC3913438, “Nucleotide Pyrophosphatase/Phosphodiesterase 1 Exerts a Negative Effect on Starch Accumulation and Growth in Rice Seedlings under High Temperature and CO2 Concentration Conditions” (Plant and Cell Physiology, 2013).

Data set [1] concerns the target T1, NPP1 (Oryza sativa, UniProt Q0X0G2).
T1 construct: recombinant, purified from transgenic rice cells (UNP1) overexpressing NPP1 cDNA; 70 kDa SDS-PAGE, 251 kDa gel filtration; gene on chromosome 8
T1 sequence (Q0X0G2 26-623): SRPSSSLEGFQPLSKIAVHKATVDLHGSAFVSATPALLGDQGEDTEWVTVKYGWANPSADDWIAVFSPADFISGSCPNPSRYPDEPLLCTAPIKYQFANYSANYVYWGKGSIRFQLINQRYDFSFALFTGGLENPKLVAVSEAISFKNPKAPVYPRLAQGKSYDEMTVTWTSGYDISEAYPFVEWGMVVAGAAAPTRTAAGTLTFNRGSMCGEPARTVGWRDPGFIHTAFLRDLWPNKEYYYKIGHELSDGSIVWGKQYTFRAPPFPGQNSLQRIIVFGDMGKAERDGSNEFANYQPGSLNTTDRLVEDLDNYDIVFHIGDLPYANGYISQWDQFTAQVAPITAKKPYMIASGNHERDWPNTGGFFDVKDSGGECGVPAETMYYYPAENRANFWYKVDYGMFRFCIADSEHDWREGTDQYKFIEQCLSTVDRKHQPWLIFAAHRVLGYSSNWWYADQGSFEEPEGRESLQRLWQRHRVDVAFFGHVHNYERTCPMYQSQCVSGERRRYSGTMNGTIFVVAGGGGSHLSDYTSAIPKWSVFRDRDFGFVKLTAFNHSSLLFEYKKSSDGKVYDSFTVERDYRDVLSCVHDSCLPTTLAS
Nature of the data set: hydrolysis kinetics, […] substrate. Type of data set: biochemical. As to conditions: 37°C, optimal pH.

Substrate in data set [2]: NC(=O)c1ccc[n+]([C@@H]2O[C@H](COP(=O)([O-])OP(=O)(O)OC[C@H]3O[C@@H](n4cnc5c(N)ncnc54)[C@H](OP(=O)(O)O)[C@@H]3O)[C@@H](O)[C@H]2O)c1
The experiment in a line: purified protein, by the assay type. Set-up: steady-state hydrolysis kinetics of purified recombinant rice NPPs, substrate 0.1-10 mM, 37 °C, optimal pH. From the text: (§1) To carry out substrate specificity and kinetic studies of NPP1, NPP2 and NPP6, in this work we produced transgenic rice cells ectopically expressing NPP1, NPP2 and NPP6 and purified the corresponding recombinant proteins as described in the Materials and Methods. Details of the processes for purification of recombinant proteins and quality of the final preparations are shown in Supplementary Table S2 and Supplementary Fig. S1A. […] Purification procedures of NPP1, NPP2 and NPP6 expressed in the transgenic rice cells (UNP1, UNP2 and UNP6, respectively) were essentially identical to those used in the earlier study ([Nanjo et al. 2006]). They are summarized in Supplementary Table S2. Rice callus cells (200 g) derived from the seed embryos of UNP1, UNP2 and UNP6 lines were homogenized in 5 vols. of 10 mM Tris–HCl (pH 8.8) and filtered through four layers of gauze. The homogenates were centrifuged at 20,000 × g for 10 min. The supernatants were then adjusted to acidic pH 5.4 with acetate buffer and centrifuged at 20,000 × g. After re-adjustment to pH 7.4 with 1.5 M Tris–HCl (pH 8.8) and further centrifugation at 20,000 × g, the resulting supernatants were applied to a Con A–Sepharose 4B column (ø 1.0 × 8 cm, Pharmacia) equilibrated with 40 mM Tris–HCl (pH 7.4), 0.5 M NaCl, 1 mM MnCl2 and 1 mM CaCl2, and eluted with 25 ml of 0.5 M α-methyl-D-mannopyranoside in 10 mM Tris–HCl (pH 7.4). The eluents were applied to a Q Sepharose HP column (ø 1.0 × 3 cm, Pharmacia) equilibrated with 10 mM Tris–HCl (pH 7.4) and eluted with 50 ml of a linear gradient of 0–0.5 M NaCl in 10 mM Tris–HCl (pH 7.4). Finally, the enzyme preparation was desalted by ultrafiltration on a Microcon YM-100 (Amicon).

Substrate in data set [3]: Nc1ncnc2c1ncn2[C@@H]1O[C@H](COP(=O)(O)OP(=O)(O)O[C@H]2O[C@H](CO)[C@@H](O)[C@H](O)[C@H]2O)[C@@H](O)[C@H]1O
Nature of the data set: purified protein. The class given is biochemical, Oryza sativa. As to conditions: 37°C.

Substrate in data set [4]: NC(=O)c1ccc[n+]([C@@H]2O[C@H](COP(=O)(O)OP(=O)(O)OC[C@H]3O[C@@H](n4cnc5c(N)ncnc54)[C@H](O)[C@@H]3O)[C@@H](O)[C@H]2O)c1
Nature of the data set: purified protein. Type of data set: biochemical, Oryza sativa. As to conditions: 37°C, optimal pH.

Substrate in data set [5]: O=c1ccn([C@@H]2O[C@H](CO[P@@](=O)(O)O[P@@](=O)(O)O[C@H]3O[C@H](CO)[C@@H](O)[C@H](O)[C@H]3O)[C@@H](O)[C@H]2O)c(=O)[nH]1
The experiment in a line: purified protein, by the assay type. Set-up: steady-state hydrolysis kinetics of purified recombinant rice NPPs, substrate 0.1-10 mM, 37 °C, optimal pH.
From the text: as §1

Substrate in data set [6]: O=c1ccn([C@@H]2O[C@H](COP(=O)(O)OP(=O)(O)O)[C@@H](O)[C@H]2O)c(=O)[nH]1
Nature of the data set: purified protein. As to conditions: 37°C, optimal pH.

Substrate in data set [7]: O=P(O)(O)OP(=O)(O)O
Nature of the data set: purified protein. The class given is biochemical, Oryza sativa. Particulars: 37°C, optimal pH.

Substrate in data set [8]: Nc1ncnc2c1ncn2[C@@H]1O[C@H](COP(=O)(O)OP(=O)(O)O)[C@@H](O)[C@H]1O
The experiment in a line: purified protein. The class given is biochemical, Oryza sativa. As to conditions: 37°C, no metal required.

Substrate in data set [9]: O=[N+]([O-])c1ccc(OP(=O)(O)Oc2ccc([N+](=O)[O-])cc2)cc1
The experiment in a line: purified protein. Particulars: 37°C, optimal pH. Type of data set: biochemical, Oryza sativa.

Substrate in data set [10]: Nc1ccn([C@@H]2O[C@H](COP(=O)(O)OP(=O)(O)O)[C@@H](O)[C@H]2O)c(=O)n1
Nature of the data set: purified protein. Particulars: 37°C, optimal pH. Type of data set: biochemical, Oryza sativa.

Substrate in data set [11]: O=c1[nH]cnc2c1ncn2[C@@H]1O[C@H](COP(=O)(O)OP(=O)(O)O)[C@@H](O)[C@H]1O
Nature of the data set: purified protein. The class given is biochemical, Oryza sativa. Particulars: 37°C, optimal pH.

Substrate in data set [12]: Nc1nc2c(ncn2[C@@H]2O[C@H](COP(=O)(O)OP(=O)(O)O)[C@@H](O)[C@H]2O)c(=O)[nH]1
Nature of the data set: purified protein. The class given is biochemical, Oryza sativa. Particulars: 37°C, optimal pH.

Setting [13] is: optimal pH (pH 6.0 with ADP-glucose), no metal required, pH 6.0.
The mark [14] stands for this setting: optimal pH (pH 5.0 with ADP-glucose), pH 5.0.
Where [15] appears, read: optimal pH (pH 4.0 with ADP), pH 4.0.
The mark [16] stands for this setting: optimal pH (pH 4.5 with ADP), pH 4.5.

`Nc1ncnc2c1ncn2[C@@H]1O[C@H](COP(=O)(O)OP(=O)(O)OP(=O)(O)O)[C@@H](O)[C@H]1O` [ATP]: in data set [1], the Km amounted to 2100 µM.

B1: NPP1 (Oryza sativa Japonica Group) (protein)
chain: T1 sequence (Q0X0G2 26-623)
notes: recombinant, purified from transgenic rice cells (UNP1) overexpressing NPP1 cDNA; 70 kDa SDS-PAGE, 251 kDa gel filtration; gene on chromosome 8
For B1, in data set [2], the Km stood at 1600 µM, the Vmax turned out to be 121 µmol/min/mg, the kcat is 141 s⁻¹ and the kcat/Km is 85000 M⁻¹ s⁻¹. Moreover, in data set [3] (setting [13]), the Km was determined as 800 µM, the Vmax worked out at 183 µmol/min/mg, the kcat was 214 s⁻¹ and the kcat/Km stood at 250000 M⁻¹ s⁻¹. For the same molecule, in [4], the Km is 800 µM, the Vmax turned out to be 93 µmol/min/mg, the kcat is 109 s⁻¹ and the kcat/Km worked out at 133000 M⁻¹ s⁻¹.

B2: NPP6 (Oryza sativa Japonica Group) (protein)
chain: GGGGGVWAFSSSSSSSSYSRIGEQPLSLIGIHRATVGIDAAASVQASPRLLGVKGEDTAWVTVDFAAPHASDGDWIGVFSPSNFNASTCPGPSGSDSGPVICSAPIKYQLANYSSDYGKTGKGTLKFQLINQRQDFSFALFTGGLSNPKLIAVSNKIAFANPKAPVYPRLAQGKSWNEMTVTWTSGYDIKEAYPFVEWGMKWSPPTRTAAGTVTFDRESLCGEPARTVGWRDPGFIHTAFLTDLWPNKEYYYKIGHMLPDGKIVWGKFYSFKAPPFPGQKSLQRVVIFGDMGKAERDGSNEYSNYQPGSLNTTDTLIKDLDNIDIVFHIGDITYANGYISQWDQFTQQVEPITARVPYMIASGNHERDWPNSGSFFNGTDSGGECGVLAETMYYTPTENRANYWYKTDYGMFRFCVADSEHDWREGTEQYAFIESCLATVDRKKQPWLVFIAHRVLGYSSGFFYGAGGAFAEPTARQSLQRLWQRHRVDLAFYGHVHNYERTCPVYDGRCASPERSRYSGAVGGTIHAVVGGGGSHLSNFTAEAPPWSVYREMDYGFVKLTAFNYTSLLYEYRRSSDGEVHDSFTVHREYRDVLACVADSCPPTIPPAT
notes: recombinant, purified from transgenic rice cells (UNP6); 74 kDa SDS-PAGE, 224 kDa gel filtration; gene on chromosome 9
Take B2: the Km in [5] came out at 1600 µM; in data set [6], 500 µM; in data set [7], 500 µM; in data set [3] (setting [14]) it was 700 µM; in [8] (setting [15]) it was 300 µM; in [9], 3000 µM. Moreover, the kcat in data set [5] was determined as 115 s⁻¹; in [6], 104 s⁻¹; in [7] it was 79 s⁻¹; in data set [3] (setting [14]), 130 s⁻¹; in [8] (setting [15]), 83 s⁻¹; in [9], 308 s⁻¹. Also, the kcat/Km came out at 73000 M⁻¹ s⁻¹ in [5]; 203000 M⁻¹ s⁻¹ in data set [6]; 175000 M⁻¹ s⁻¹ in data set [7]; 193000 M⁻¹ s⁻¹ in [3] (setting [14]); 297000 M⁻¹ s⁻¹ in [8] (setting [15]); 103000 M⁻¹ s⁻¹ in [9]. Moreover, the Vmax in data set [6] came out at 84 µmol/min/mg; in data set [7] it was 64 µmol/min/mg; in data set [3] (setting [14]), 105 µmol/min/mg; in data set [8] (setting [15]), 68 µmol/min/mg; in data set [9] it was 250 µmol/min/mg.

B3: NPP2 (Oryza sativa Japonica Group) (protein)
chain: RGDEQPLSRIAIERATVAAVDSASVKAQPTVLGLKGQSSDWVVVEFSHPKPSNDDWIGVFSPSGFSSEICQPEYYGDLPPYLCTSPIKFQYANFNNADYNRSGKGLLRLQLINQREDFSFALFSGGLSAPKLIAISNKVSFQNPKAPVYPRLAQGKSWNEMTVTWTSGYSIKEAIPFVEWGHKGGNQMLSPAGTLTFSRNSMCGSPARTVGWRDPGYIHTSFLKELWPDSLYTYRLGHRLLDGTHIWSKSYSFRASPYPGQDSVQRVVIFGDMGKAEIDGSDEYGNYEQASLYTTNQLIKELDSIDMVIHIGDLSYANGYLSQWDQFTQQIEPIASTVPYMIGSGNHERDWPGSGSFYGHNDSGGECGVPTQTMFYVPAENRAKLWYSTDYGMFRFCIADTEQDWRPGTEQYKFIEQCLSSVDRSKQPWLIFLAHRVLGYSSASWYEIMMGSYGEPMGRDGLEELWQKYKVDLAVFGHIHSYERTCPIYQNRCVQDGSNLYTGQFNATTHVIVGGGGAMLSPFRATVPYWSFFRDYDFGFSKLTALNHSTLLFEYKKSRDGKVYDHFTISRDYRDIMACSIDNCPRTTLAV
notes: recombinant, purified from transgenic rice cells (UNP2); 71 kDa SDS-PAGE, 374 kDa gel filtration; gene on chromosome 12
For B3, the Km was determined as 1200 µM in data set [6]; 1900 µM in data set [10]; 2200 µM in data set [11]; 900 µM in data set [12]; 1100 µM in [8] (setting [16]); 2600 µM in [9]. In addition, the Vmax in [6] amounted to 85 µmol/min/mg; in data set [10] it was 76 µmol/min/mg; in data set [11], 75 µmol/min/mg; in [12], 24 µmol/min/mg; in data set [9], 60 µmol/min/mg. In addition, the kcat in data set [6] came to 101 s⁻¹; in data set [10], 89 s⁻¹; in data set [11], 88 s⁻¹; in data set [12] it was 28 s⁻¹; in [8] (setting [16]), 80 s⁻¹; in data set [9], 71 s⁻¹. Further, the kcat/Km was 84000 M⁻¹ s⁻¹ in [6]; 47000 M⁻¹ s⁻¹ in [10]; 40000 M⁻¹ s⁻¹ in data set [11]; 32000 M⁻¹ s⁻¹ in data set [12]; 73000 M⁻¹ s⁻¹ in data set [8] (setting [16]); 27000 M⁻¹ s⁻¹ in [9].

The term Km denotes the concentration of substrate that gives half-maximal velocity. The Vmax is the rate approached at saturating substrate. The term kcat denotes the maximal rate divided by the concentration of active sites. For orientation: kcat/Km means the second-order rate constant that governs catalysis at low substrate concentration.
